Experimental data reported in paper PMC8906541, “A conserved arginine in NS5 binds genomic 3′ stem–loop RNA for primer-independent initiation of flavivirus RNA replication”.

Key:
NS5 WT [1] = target: T1, NS5 WT (Dengue virus 2, UniProt A9LIC9 2492-3391); assay: EMSA; Kd stated only as micromolar range; value in figure; conditions: protein: recombinant; tags: N-terminal His6-TEV, cleaved; stem-loop
NS5 WT [2] = target: T1, NS5 WT; assay: EMSA; Kd value only in figure; >100-fold excess yeast tRNA does not affect binding; conditions: protein: recombinant; tags: N-terminal His6-TEV, cleaved; stem-loop

B1: 5'SLA (structured_RNA)
RNA: AGUUGUUAGUCUACGUGGACCGACAAAGACAGAUUCUUUGAGGAAGCUAAGCUUAACGUAGUUCUAACAG
- binding result (NS5 WT [1]): binds

B2: 3'SL (structured_RNA)
RNA: AGAUCCUGCUGUCUCCUCAGCAUCAUUCCAGGCACAGAACGCCAGAAAAUGGAAUGGUGCUGUUGAAUCAACAGGUUCU
- binding result (NS5 WT [2]): binds
